Data as given in article PMC9138599, “Clade-Specific Alterations within the HIV-1 Capsid Protein with Implications for Nuclear Translocation” (Biomolecules, 2022).
pKd: −log10 of the molar value. Values joined by “and” are separate entries in the source; they are usually repeats but may differ in a detail not shown here. Identical values can stand only once.

How the values were obtained:
[1] = target: NUP-153 RRR patch (Homo sapiens) (UniProt P49790); details: cited from earlier work
[2] = target: HIV-1 CA hexamer from clade A1 (isolate 92UG037.1) (HIV-1 isolate 92UG037.1 (clade A1)); assay: cross-linking
[3] = target: HIV-1 CA hexamer from clade A2 (isolate CDKTB48) (HIV-1 isolate CDKTB48 (clade A2)); assay: cross-linking
[4] = target: HIV-1 CA hexamer from clade B (isolate NL4-3) (HIV-1 isolate NL4-3 (clade B)); assay: cross-linking
[5] = target: HIV-1 CA hexamer from clade C (isolate 92BR025.8) (HIV-1 isolate 92BR025.8 (clade C)); assay: cross-linking
[6] = target: HIV-1 CA hexamer from clade D (isolate 94UG114.1) (HIV-1 isolate 94UG114.1 (clade D)); assay: cross-linking
[7] = target: HIV-1 CA hexamer from clade C (isolate 92BR025.8) (HIV-1 isolate 92BR025.8 (clade C)); assay: SPR; CA hexamer amine-coupled to a ProteOn GLH chip, peptide injected as analyte; 25 °C; 1x PBS pH 7.4, 3% DMSO, 0.005% polysorbate 20; reference surface IgG b12; 1:1 binding model; KD from a Langmuir isotherm equilibrium fit and from a global kinetic fit; triplicate
[8] = target: HIV-1 CA hexamer from clade D (isolate 94UG114.1) (HIV-1 isolate 94UG114.1 (clade D)); assay: as above
[9] = target: HIV-1 CA hexamer from clade A2 (isolate CDKTB48) (HIV-1 isolate CDKTB48 (clade A2)); assay: as above

Substance: CA (from UniProt O93215)
- pKd [1]: 6.10

Substance: HIV-1 CA hexamer from clade A1 (isolate 92UG037.1) (natural protein)
- stoichiometry N [2]: 6

Substance: HIV-1 CA hexamer from clade A2 (isolate CDKTB48) (natural protein)
- stoichiometry N [3]: 6

Substance: HIV-1 CA hexamer from clade B (isolate NL4-3) (natural protein)
- stoichiometry N [4]: 6

Substance: HIV-1 CA hexamer from clade C (isolate 92BR025.8) (natural protein)
- stoichiometry N [5]: 6

Substance: HIV-1 CA hexamer from clade D (isolate 94UG114.1) (natural protein)
- stoichiometry N [6]: 6

Substance: NUP-153 peptide (1407-…-1423)
- pKd [7]: 3.30 and 3.06
- pKd [8]: 3.51 and 3.43
- pKd [9]: 3.35 and 3.13
